The chains are these.
B1: Intersectin-1, residues 909 to 971; numbered along this chain, Q15811 (parent)
chain: QGEKVEGLQAQALYPWRAKKDNHLNFNKNDVITVLEQQDMWWFGEVQGQKGWFPKSYVKLISG

± gives the uncertainty stated by the source.

The variants in the series derive from B1. The experiment in a line: abundance fitness (aPCA) (normalised: wild type 0, dead -1); higher = more abundant; growth selection in yeast, the domain comes from the species named. The settings on record: Homo sapiens.
Turning to QGEKVEGLQADALYPWRAKKDNHLNFNKNDVITVLEQQDMWWFGEVQGQKGWFPKSYVKLISG [Q11D], the abundance fitness was -0.728 ± 0.47. Turning to QGEKVEGLQACALYPWRAKKDNHLNFNKNDVITVLEQQDMWWFGEVQGQKGWFPKSYVKLISG [Q11C], the abundance fitness was -0.459 ± 0.21. The same measure for QGEKVEGLQAKALYPWRAKKDNHLNFNKNDVITVLEQQDMWWFGEVQGQKGWFPKSYVKLISG [Q11K]: -0.142 ± 0.12; for QGEKVEGLQAAALYPWRAKKDNHLNFNKNDVITVLEQQDMWWFGEVQGQKGWFPKSYVKLISG [Q11A]: -0.239 ± 0.094; for QGEKVEGLQAYALYPWRAKKDNHLNFNKNDVITVLEQQDMWWFGEVQGQKGWFPKSYVKLISG [Q11Y]: -0.09 ± 0.26. As to QGEKVEGLQARALYPWRAKKDNHLNFNKNDVITVLEQQDMWWFGEVQGQKGWFPKSYVKLISG [Q11R], the abundance fitness was -0.067 ± 0.075.

For the variant QGEKVEGLQATALYPWRAKKDNHLNFNKNDVITVLEQQDMWWFGEVQGQKGWFPKSYVKLISG [Q11T], the abundance fitness is -0.098 ± 0.13. In the case of QGEKVEGLQAPALYPWRAKKDNHLNFNKNDVITVLEQQDMWWFGEVQGQKGWFPKSYVKLISG [Q11P], the abundance fitness is -1.03 ± 0.42. As for QGEKVEGLQASALYPWRAKKDNHLNFNKNDVITVLEQQDMWWFGEVQGQKGWFPKSYVKLISG [Q11S], the abundance fitness was -0.066 ± 0.086. The same measure for QGEKVEGLQAGALYPWRAKKDNHLNFNKNDVITVLEQQDMWWFGEVQGQKGWFPKSYVKLISG [Q11G]: -0.498 ± 0.093. Under QGEKVEGLQAEALYPWRAKKDNHLNFNKNDVITVLEQQDMWWFGEVQGQKGWFPKSYVKLISG [Q11E] stands -0.33 ± 0.13. Under QGEKVEGLQAHALYPWRAKKDNHLNFNKNDVITVLEQQDMWWFGEVQGQKGWFPKSYVKLISG [Q11H] stands -0.131 ± 0.29; under QGEKVEGLQAWALYPWRAKKDNHLNFNKNDVITVLEQQDMWWFGEVQGQKGWFPKSYVKLISG [Q11W], -0.098 ± 0.14; under QGEKVEGLQALALYPWRAKKDNHLNFNKNDVITVLEQQDMWWFGEVQGQKGWFPKSYVKLISG [Q11L], -0.247 ± 0.098. With QGEKVEGLQAMALYPWRAKKDNHLNFNKNDVITVLEQQDMWWFGEVQGQKGWFPKSYVKLISG [Q11M], the abundance fitness was -0.119 ± 0.14. Under QGEKVEGLQAVALYPWRAKKDNHLNFNKNDVITVLEQQDMWWFGEVQGQKGWFPKSYVKLISG [Q11V] stands -0.364 ± 0.16. Under QGEKVEGLQAQGLYPWRAKKDNHLNFNKNDVITVLEQQDMWWFGEVQGQKGWFPKSYVKLISG [A12G] stands -0.404 ± 0.07; under QGEKVEGLQAQSLYPWRAKKDNHLNFNKNDVITVLEQQDMWWFGEVQGQKGWFPKSYVKLISG [A12S], -0.577 ± 0.2; under QGEKVEGLQAQCLYPWRAKKDNHLNFNKNDVITVLEQQDMWWFGEVQGQKGWFPKSYVKLISG [A12C], -0.474 ± 0.21. Under QGEKVEGLQAQTLYPWRAKKDNHLNFNKNDVITVLEQQDMWWFGEVQGQKGWFPKSYVKLISG [A12T] stands -0.841 ± 0.32.

On to QGEKVEGLQAQRLYPWRAKKDNHLNFNKNDVITVLEQQDMWWFGEVQGQKGWFPKSYVKLISG [A12R], for which the abundance fitness was -0.997 ± 0.21. As to QGEKVEGLQAQKLYPWRAKKDNHLNFNKNDVITVLEQQDMWWFGEVQGQKGWFPKSYVKLISG [A12K], the abundance fitness is -0.773 ± 0.48. Under QGEKVEGLQAQWLYPWRAKKDNHLNFNKNDVITVLEQQDMWWFGEVQGQKGWFPKSYVKLISG [A12W] stands -1.02 ± 0.44; under QGEKVEGPQAQALYPWRAKKDNHLNFNKNDVITVLEQQDMWWFGEVQGQKGWFPKSYVKLISG [L8P], -0.345 ± 0.2; under QGEKVEGIQAQALYPWRAKKDNHLNFNKNDVITVLEQQDMWWFGEVQGQKGWFPKSYVKLISG [L8I], -0.136 ± 0.31. Under QGEKVEGDQAQALYPWRAKKDNHLNFNKNDVITVLEQQDMWWFGEVQGQKGWFPKSYVKLISG [L8D] stands -0.236 ± 0.13. For the variant QGEKVEGTQAQALYPWRAKKDNHLNFNKNDVITVLEQQDMWWFGEVQGQKGWFPKSYVKLISG [L8T], the abundance fitness was -0.039 ± 0.18. Under QGEKVEGSQAQALYPWRAKKDNHLNFNKNDVITVLEQQDMWWFGEVQGQKGWFPKSYVKLISG [L8S] stands -0.117 ± 0.11. Under QGEKVEGEQAQALYPWRAKKDNHLNFNKNDVITVLEQQDMWWFGEVQGQKGWFPKSYVKLISG [L8E] stands -0.003 ± 0.11; under QGEKVEGWQAQALYPWRAKKDNHLNFNKNDVITVLEQQDMWWFGEVQGQKGWFPKSYVKLISG [L8W], -0.152 ± 0.11. Under QGEKVEGRQAQALYPWRAKKDNHLNFNKNDVITVLEQQDMWWFGEVQGQKGWFPKSYVKLISG [L8R] stands -0.087 ± 0.072.

Take QGEKVEGHQAQALYPWRAKKDNHLNFNKNDVITVLEQQDMWWFGEVQGQKGWFPKSYVKLISG [L8H]: the abundance fitness is -0.361 ± 0.3.

Consider QGEKVEGGQAQALYPWRAKKDNHLNFNKNDVITVLEQQDMWWFGEVQGQKGWFPKSYVKLISG [L8G], for which the abundance fitness is -0.048 ± 0.066. Under QGEKVEGMQAQALYPWRAKKDNHLNFNKNDVITVLEQQDMWWFGEVQGQKGWFPKSYVKLISG [L8M] stands 0.094 ± 0.13; under QGEKVEGVQAQALYPWRAKKDNHLNFNKNDVITVLEQQDMWWFGEVQGQKGWFPKSYVKLISG [L8V], 0.14 ± 0.082; under QGEKVEGKQAQALYPWRAKKDNHLNFNKNDVITVLEQQDMWWFGEVQGQKGWFPKSYVKLISG [L8K], -0.136 ± 0.15. Under QGEKVEGAQAQALYPWRAKKDNHLNFNKNDVITVLEQQDMWWFGEVQGQKGWFPKSYVKLISG [L8A] stands 0.043 ± 0.092. Under QGEKVEGQQAQALYPWRAKKDNHLNFNKNDVITVLEQQDMWWFGEVQGQKGWFPKSYVKLISG [L8Q] stands 0.05 ± 0.13; under QGEKVEGYQAQALYPWRAKKDNHLNFNKNDVITVLEQQDMWWFGEVQGQKGWFPKSYVKLISG [L8Y], 0.112 ± 0.3; under QGEKVEGLQGQALYPWRAKKDNHLNFNKNDVITVLEQQDMWWFGEVQGQKGWFPKSYVKLISG [A10G], -0.212 ± 0.07. Consider QGEKVEGLQKQALYPWRAKKDNHLNFNKNDVITVLEQQDMWWFGEVQGQKGWFPKSYVKLISG [A10K], for which the abundance fitness was -0.152 ± 0.16. Under QGEKVEGLQEQALYPWRAKKDNHLNFNKNDVITVLEQQDMWWFGEVQGQKGWFPKSYVKLISG [A10E] stands -0.821 ± 0.29.

The record behind these values is the Human Domainome abundance scans (Beltran et al. 2025).
